# B1: 1F6-vcAFP: anti-CD70 mAb 1F6 linked to auristatin phenylalanine phenylenediamine by the valine-citrulline (vc) dipeptide linker (conjugate)
# VH: QIQLVQSGPEVKKPGETVKISCKASGYTFTNYGMNWVKQAPGKGLKWMGWINTYTGEPTYADAFKGRFAFSLETSASTAYLQINNLKNEDTATYFCARDYGDYGMDYWGQGTSVTVSS
# VL: DIVLTQSPASLAVSLGQRATISCRASKSVSTSGYSFMHWYQQKPGQPPKLLIYLASNLESGVPARFSGSGSGTDFTLNIHPVEEEDAATYYCQHSREVPWTFGGGTKLEIKR
# modifications: non-natural residues
# notes: anti-CD70 mAb 1F6 linked to auristatin phenylalanine phenylenediamine by the valine-citrulline (vc) dipeptide linker
# Experiments:
# [1] = tested on: CD70^+ RCC lines; settings: in 4 of the 7 CD70^+ RCC lines tested
# Method: (§1) To examine the responses of CD70^+ RCC lines to 1F6 ADCs, cells were seeded between 1,000 to 3,000 cells per well in 100 μl of medium. An additional 100 μl of culture medium containing graded doses of ADCs were added to the wells after cells were allowed to attached overnight. In addition to DNA synthesis, cell viability, as a reflection of the cytotoxic activities of ADCs, was also assayed by the reduction of alamarBlue™ (Biosource International, Camarillo, Calif.). The alamarBlue™ dye was added at a one to four dilution during the last 4 to 24 hours of the incubation. Dye reduction was assessed by fluorescence spectrometry using the excitation and emission wavelengths of 535 nm and 590 nm, respectively. For analysis, the amount of ^3H-TdR incorporated or the extent of alamarBlue™ reduction by the treated cells was compared to that of the untreated control cells.
# [2] = tested on: Caki-1 cells; assay: 3H-TdR proliferation assay, RCC lines; type: cell-based, human; settings: Caki-1, 3H-TdR incorporation, 96 hours
# [3] = tested on: CD70^+ hematologic cell lines; assay: 3H-TdR proliferation assay, panel of CD70^+ hematologic lines; type: cell-based, human; settings: all the responsive cell lines tested
# Method: FIG. 5: Effects of anti-CD70 ADCs on the proliferation of transformed hematologic cell lines. A subset of the CD70^+ cell lines shown in FIG. 4 and the CD70^− Jurkat cell line were tested for their sensitivity toward 1F6 ADCs. Graded doses of the 1F6-vcMMAE, 1F6-vcAFP, or the corresponding non-binding control IgG (IgG) ADCs were added to cells at the initiation of culture. Cells were exposed to the ADCs continuously for a total of 96 hours. Proliferation was determined by pulsing with ^3H-TdR during the last 16 hours of incubation. The upper panels show the response of the WSU-NHL and Jurkat lines. The lower panel summaries the responses by the tested cell lines to 1F6-vcMMAE and 1F6-vcAFP in form of IC50s.
# A subset of the CD70^+ hematologic lines listed in FIG. 4 was tested for sensitivity to the 1F6 ADCs. These lines were seeded at 5,000 cells per well in 96-well plates in quadruplicates in a total of 200 μl of culture medium containing graded doses of the ADCs as indicated in the FIG. 5 and the accompanying figure legend. Proliferation assays were carried out for 96 hours. Tritiated thymidine (^3H-TdR) incorporation during the last 16 hours of incubation was used to assess DNA synthesis. The responses of a CD70^+ B lymphoma cell line WSU-NHL and the CD70^− Jurkat cells are shown in the upper panels of FIG. 5. […]
# [4] = tested on: CD70^+ RCC lines; assay: 3H-TdR proliferation assay, panel of RCC lines; type: cell-based, human; settings: CD70^+ RCC lines tested
# [5] = tested on: Caki-1 tumors; assay: Caki-1 subcutaneous xenograft model of RCC; type: in vivo, nude mice; design: average tumor size: dose or concentration left out as unconfirmed
# Description: Tumors were initiated in nude mice by implanting tissue tumor blocks (30 mm^3 in size) containing Caki-1 cells. Treatment began when average tumor size within a treatment group was around 100 mm^3. In the upper panel, treatment for the IgG and 1F6 groups began 17 days post implantation (filled arrow), while treatment for the 1F6-vcAFP and IgG-vcAFP groups began 25 days post implantation (open arrow). Indicated doses of either unconjugated mAbs or their ADCs were given for one course on a q4d×4 schedule.
# Using xenografts of the Caki-1 line in nude mice, the […] antitumor activity of 1F6-vcAFP was tested. To establish Caki-1 tumors, nude mice were injected subcutaneously with 5×10^6 Caki-1 cells in 0.2 ml PBS. […] Caki-1-containing tumors were excised from tumor bearing mice and tumor tissue blocks of approximately 30 mm^3 were prepared. Naive nude mice to be used for evaluating in vivo antitumor activity of anti-CD70 ADC were each implanted subcutaneously with one tumor block of 30 mm^3. […] Treatment was initiated when the average tumor size within a group was approximately 100 mm^3 (FIG. 12, arrows).
# [6] = tested on: 786-O cells; assay: alamarBlue reduction cell viability (cytotoxicity) assay; settings: 96 hours
# Method: (§2) 786-O or Caki-1 cells were incubated with graded doses of 1F6-vcAFP or the non-binding control IgG-vcAFP. Cells were incubated for a total of 96 hours. ^3H-thymidine incorporation (upper panel) and reduction of alamarBlue (lower panel) were used to determine proliferation and cell viability, respectively. Data points are expressed as percentages of the untreated control. Error bars represent the standard deviations of values obtained from quadruplicate wells.
# as §1
# [7] = tested on: Caki-1 cells; assay: as above; settings: Caki-1, alamarBlue reduction, 96 hours
# Method: as §2, §1
# [8] = tested on: PBMCs stimulated with irradiated allogeneic CESS cells; assay: Mixed lymphocyte reaction (3H-TdR); type: cell-based, human; settings: MLR
# [9] = tested on: activated T cell clones; assay: Proliferation of activated T cell clones (3H-TdR); type: cell-based, human
# [10] = tested on: 786-O cells; assay: 3H-TdR proliferation assay, RCC lines; type: cell-based, human; settings: 3H-TdR incorporation, 96 hours
molecule,measurement,setting,value
B1,IC50 values to induce cytotoxicity,[1],lower than 20 ng/ml
same,concentration at which maximal proliferation inhibitory effects were achieved,[2],lower than 0.1 μg/ml
same,relative inhibitory activity,[3],more potent inhibitory activity than 1F6-vcMMAE
same,IC50 values for proliferation inhibition,[4],2 to 247 ng/mL
same,average tumor size,"[5]; 1, 56 days after treatment initiation",< 600 mm^3
same,average tumor size,"[5]; 3, 70 days after treatment initiation",under 200 mm^3
same,therapeutic activity / tumor growth,"[5]; Caki-1 xenograft, q4d×4",significantly inhibited tumor growth
same,concentration at which maximal cytotoxic effects were achieved,[6],lower than 0.1 μg/ml
same,concentration at which maximal cytotoxic effects were achieved,[7],lower than 0.1 μg/ml
same,relative activity,[8],more active than 1F6-vcMMAE
same,"IC50, T cell proliferation",[8]; 5-day culture,approximately 0.1 μg/ml
same,effect on T cell proliferation,[8]; 5-day culture,substantially inhibited T cell proliferation
same,relative activity,[9]; T cell clones,more active than 1F6-vcVMMAE
same,"IC50, proliferation",[9]; all 3 clones,below 0.05 μg/ml
same,concentration at which maximal proliferation inhibitory effects were achieved,[10],lower than 0.1 μg/ml

# — patent US8663642B2, “Anti-CD70 antibody-drug conjugates and their use for the treatment and prevention of cancer and immune disorders” (priority 2003, dated 2014)
